Measured values reported in patent US5919666.

Legend:
[1] = target: mammalian RNA polymerase II holoenzyme (calf thymus)
[2] = target: RNA polymerase II holoenzyme (yeast)
[3] = target: RNA polymerase II (calf thymus) (bovine (calf thymus)); assay: cofractionation during purification from calf thymus, Western blot

Row | Substance | in vitro transcription from the adenovirus major late promoter with 3 Gal4 binding sites, with coactivators HMG-2 or PC4 [1] [fold] | in vitro transcription from a template with a GAL4 site, reconstituted with holoenzyme, factor a and TBP [2] [fold] | percent of the RNA polymerase II associated with SRB7 [3] [%]
1 | GAL4-VP16 (from UniProt P04386) | 5 | 5 | –
2 | bovine SRB7 (from UniProt Q2TBU8) | – | – | > 20
